These results are taken from the supplement of paper PMC9170038.

The data set has as its system MS2 coat protein. Description: apparent KD of MS2 coat protein; designed switch direction (-1 OFF switch, 1 ON switch): -1; higher = weaker reporter binding. The method in brief: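 Designed RNA switches with common flanks were made on Illumina chips by stalled E. coli RNA polymerase. Titration with SNAP-549-labelled MS2 coat protein doubled from 0.7 or 1.5 nM up to 3 µM. Apparent KD is each design's median over clusters after curve-fitting normalised fluorescence.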

[1] abbreviates: input ligand: microRNA oligo, concentration not stated.
Setting [2] is: Eterna round: R95, input ligand: microRNA oligo, concentration not stated.

Consider “AUUAUGUUAGGAUAUGCUUAUGGUGGAUAGUCCAGUAUGAUGUAGAAGGGACAUGAGGAUCACCCAUGUGCUGA [EX4 #34] (Eterna round: R97, puzzle: Exclusion 4)”, for which the “apparent KD of MS2 coat protein” value (input ligand: FMN 200 uM) worked out at 46.9 nM and the “apparent KD of MS2 coat protein” value (input ligand: none) turned out to be 41.9 nM.
For “AUUCAACAUGAGGAUCACCCAUGUGAGGAUAUGCGAGUAUAGACUUCGGUCUGAUAGAGCAGAAGGCGCAGAUA [EX1 #6] (Eterna round: R97, puzzle: Exclusion 1)”, the “apparent KD of MS2 coat protein” value (input ligand: FMN 200 uM) is 48.7 nM and the “apparent KD of MS2 coat protein” value (input ligand: none) is 32.8 nM.
With “AUUCCCACCCGAGGAUAUGCUUUAUUGCCGGGUGGUCAACAUGAGGAUCACCCAUGUAACUAAACGCAGAAGGCGGACAAUAAG [Ediner] (Eterna round: R96, puzzle: Exclusion NG 2)”, the “apparent KD of MS2 coat protein” value is, setting by setting: (input ligand: FMN 200 uM) 33.5 nM; under setting [1], 116 nM; (input ligand: none) 33.8 nM.
As for “AUUGUAGUUGUGAGGAUAUCGUAGAUUUAUUGAAACGAGAAGGCACAUGAGGAUCACCCAUGUAAGUUGUAGGU [JR_BMOE4_Sub054] (puzzle: Brourd's mod of Exclusion 4)”, the “apparent KD of MS2 coat protein” value under setting [2] was 54 nM.
“AUUGUUUGAUACCUCUAAUACAUGAGGAUCACCCAUGUUAUCGAGGAUAUGCAGAAGAGAGGAGAGCAGAAGGCGAAGUAAGAG [JR_ExcNG3_Sub027] (Eterna round: R96, puzzle: Exclusion NG 3)”: the “apparent KD of MS2 coat protein” value by setting is: (input ligand: FMN 200 uM) 21.5 nM; under setting [1], 15.9 nM; (input ligand: none) 19.6 nM.
As to “AUUUAACAUGAGGAUCACCCAUGUGAGGAUAUGCGAGUGUAGACUUCGGUCUGAUAGAGCAGAAGGCGCAGAUA [EX1 #9] (Eterna round: R97, puzzle: Exclusion 1)”, the “apparent KD of MS2 coat protein” value (input ligand: FMN 200 uM) was 48.6 nM and the “apparent KD of MS2 coat protein” value (input ligand: none) was 45 nM.
As to “AUUUAAUUUAAUAAGAUCACAUGAGGAUCACCCAUGUUAUAAUAGGAUAUCAGCUCGAUUAGAGCUGAGAAGGAUUAUAACAUG [ExNG3/9-A1] (Eterna round: R96, puzzle: Exclusion NG 3)”, the “apparent KD of MS2 coat protein” value (input ligand: FMN 200 uM) stood at 35.3 nM, the “apparent KD of MS2 coat protein” value under setting [1] was 20.1 nM and the “apparent KD of MS2 coat protein” value (input ligand: none) is 28.8 nM.
Consider “AUUUAGAGAGGAUAUAUUAUGUGAAACAUGAGGAUCACCCAUGUAAUAUGAUGGAUAUAAAUAGAAGGCUCAUUUA [Mat - Exclusion 5 - JL mod - D24] (puzzle: Exclusion 5)”, for which, under setting [2], the “apparent KD of MS2 coat protein” value is 32.3 nM.
In the case of “AUUUAUGGAGGAUAUACUUGAGGAUCACCCAAGUGGAGUCCCAAAUGGGCGGUAAAUAGUAGAAGGCCGUCUUA [jl-ex3-4.49 ViennaUCT mod] (Eterna round: R97, puzzle: Exclusion 3)”, the “apparent KD of MS2 coat protein” value is 17.2 nM (input ligand: FMN 200 uM) and 16.5 nM (input ligand: none).
“AUUUUGUCAGGAUAUUAGUAGUAAAUGAAUAAAAUUAUUACUGAGAAGGGACAUGAGGAUCACCCAUGUGUCUU [Mat - Exclusion 4 - Eli Mod - D9] (Eterna round: R97, puzzle: Exclusion 4)”: the “apparent KD of MS2 coat protein” value came to 24.1 nM (input ligand: FMN 200 uM) and 23 nM (input ligand: none).
For the sequence “AUUUUGUGAGGAUAUUAGUUGUAGAAAAUUGUUAGUAUAGCUGAGAAGGCACAUGAGGAUCACCCAUGUAAAUC [JR_Ex4_Sub042] (Eterna round: R97, puzzle: Exclusion 4)”, the “apparent KD of MS2 coat protein” value is, setting by setting: (input ligand: FMN 200 uM) 91 nM; (input ligand: none) 19 nM.
As for “CAAAACAGAGGAUAUACAUUUCCUCACCGCCAAAUGGCGGAACAUGAGGAUCACCCAUGUAGAAGGCUGGAAAA [Gesous] (puzzle: Exclusion 2)”, the “apparent KD of MS2 coat protein” value (Eterna round: R95, input ligand: FMN 200 uM) was found to be 292 nM; the “apparent KD of MS2 coat protein” value under setting [2] turned out to be 114 nM; the “apparent KD of MS2 coat protein” value (Eterna round: R95, input ligand: none) was 118 nM.
On to “CAAACCUCAGGAUAUCGAGACUCGGACAUGAGGAUCACCCAUGUGAGGCUCGUGAGUCCACGAGAAGGGAGGAGCA [Eternabot (Original) Solution 38] (Eterna round: R97, puzzle: Exclusion 5)”, for which the “apparent KD of MS2 coat protein” value (input ligand: FMN 200 uM) was 26.1 nM and the “apparent KD of MS2 coat protein” value (input ligand: none) is 17.4 nM.
Consider “CAAAUCUGAGGAUAUCGAUAUUUGUACAUGAGGAUCACCCAUGUCCUAUUUAUUAUAUUUCGAGAAGGCAGUGUAU [JR_E5_Sub094] (puzzle: Exclusion 5)”, for which, under setting [2], the “apparent KD of MS2 coat protein” value stood at 19.2 nM.
As to “CAACAUGAGGAUCACCCAUGUGGCCCUACGUGCUGGCUCGGGCAGGAUAUUAACCAAUGAGUAGUUAAGAAGGGCUCGCAAGUA [Eternabot solution 14] (Eterna round: R96, puzzle: Exclusion NG 3)”, the “apparent KD of MS2 coat protein” value (input ligand: FMN 200 uM) worked out at 223 nM, the “apparent KD of MS2 coat protein” value under setting [1] was determined as 40.6 nM and the “apparent KD of MS2 coat protein” value (input ligand: none) is 76.6 nM.
As to “CAAGAACAGGUCAGGAUAUGGCAAAUAAAUAACAACCAGAAGGGACUUGAGGAUCACCCAAGUUUAGAAGGGUA [Tebeorus] (Eterna round: R97, puzzle: Brourd's mod of Exclusion 4)”, the “apparent KD of MS2 coat protein” value reads like this: (input ligand: FMN 200 uM) 221 nM; (input ligand: none) 39.4 nM.
With “CAAGCCUGAACGGCCGCUCACAUGAGGAUCACCCAUGUCACCUGUGCUAGAGGACCACAUUAAUCGCUUCGUCUUGG [Eternabot (L1) Solution 7] (Eterna round: R97, puzzle: Sensor, turn-off variant 1)”, the “apparent KD of MS2 coat protein” value was determined as 69.8 nM (input ligand: FMN 200 uM) and 88.9 nM (input ligand: none).
Regarding “CAAUUAAUUAAUUAAUAAUACAUGAGGAUCACCCAUGUAGAUCCUACAUACAAGCUAAGUAGCUCGUCUUAUAAUUA [Stov1/2-A3] (Eterna round: R97, puzzle: Sensor, turn-off variant 1)”, the “apparent KD of MS2 coat protein” value is, setting by setting: (input ligand: FMN 200 uM) 417 nM; (input ligand: none) 625 nM.
With “CACAAUGACGUCAGGAUAUGUAAACAGCGAAGUUUGUAGAAGGGACAUGAGGAUCACCCAUGUAUAACUGGGAG [Eternabot (L2) Solution 27] (Eterna round: R97, puzzle: Brourd's mod of Exclusion 4)”, the “apparent KD of MS2 coat protein” value by setting is: (input ligand: FMN 200 uM) 220 nM; (input ligand: none) 149 nM.
Regarding “CACCGUUACUGAGGAUAUCUUACAUGAGGAUCACCCAUGUAAUAAAUGAGAAUUUCGGAUGUAUUAGAGAAGGCAGAAAUCGGC [Ostricism 61 - Jieux - Exclusion NG 2] (Eterna round: R96, puzzle: Exclusion NG 2)”, the “apparent KD of MS2 coat protein” value is, setting by setting: (input ligand: FMN 200 uM) 22.6 nM; under setting [1], 16.3 nM; (input ligand: none) 23.9 nM.
For “CACCUGAAAGGAGGAUAUCUUACAUGAGGAUCACCCAUGUAAUAAAUGAGAAUUUCGAAUGUAAUAGAGAAGGCCUGAAAAGGC [Ostracism 85 - Jieux - Exclusion NG 2] (Eterna round: R96, puzzle: Exclusion NG 2)”, the “apparent KD of MS2 coat protein” value was 30.6 nM (input ligand: FMN 200 uM), 25 nM under setting [1] and 34.4 nM (input ligand: none).
In the case of “CACCUGAAGAGAGGAUAUCAUACAUGAGGAUCACCCAUGUAAUAAAUGAGAAUUUCGAAUGUAAUUGAGAAGGCUCAAUAAGGC [Ostricism 95 - Jieux - Exclusion NG 2] (Eterna round: R96, puzzle: Exclusion NG 2)”, the “apparent KD of MS2 coat protein” value runs as follows: (input ligand: FMN 200 uM) 82.9 nM; under setting [1], 33 nM; (input ligand: none) 47.9 nM.
For the sequence “CACGCAUCAGGAUAUACAUGAGGAUCACCCAUGUGUUCCAGCUAGGAAACUAGCAAAUGUAGAAGGGAUGCGUG [Mat - Exclusion 3 - JL Mod - D7] (Eterna round: R97, puzzle: Exclusion 3)”, the “apparent KD of MS2 coat protein” value by setting is: (input ligand: FMN 200 uM) 727 nM; (input ligand: none) 208 nM.
As for “CACUUGGCAGGAUAUGCAAUUUUAGACAUGAGGAUCACCCAUGUGAUCAUUCCAUAUUAUGCAGAAGGGCCUAAAC [JR_E5_Sub050] (puzzle: Exclusion 5)”, under setting [2], the “apparent KD of MS2 coat protein” value worked out at 214 nM.
With “CAGCUGUCAGGAUAUCGUGCAUACAACGAAAGUUCUAUGUGCGAGAAGGGACAUGAGGAUCACCCAUGUUAACG [Omei Ex4 A25] (Eterna round: R97, puzzle: Exclusion 4)”, the “apparent KD of MS2 coat protein” value is, setting by setting: (input ligand: FMN 200 uM) 58 nM; (input ligand: none) 46 nM.
As to “CAGGAAGCGGAGGAUAUGAUGAAAACUCGGCAAUCAGAAGGCCGCACAUGAGGAUCACCCAUGUCGCAAAUACC [Eternabot (Original) Solution 36] (Eterna round: R97, puzzle: Exclusion 6)”, the “apparent KD of MS2 coat protein” value came to 16.6 nM (input ligand: FMN 200 uM) and 15.3 nM (input ligand: none).
As to “CAGGAUAGAGGAUAUACGUAGAUACAGAUUCAUGUAAUCCUACAUGAGGAUCACCCAUGUAGAAGGCUAUCCUG [Fiskers Ex 2 - 18] (puzzle: Exclusion 2)”, under setting [2], the “apparent KD of MS2 coat protein” value turned out to be 17.6 nM.
With “CAGGGCGCAGGAUAUAUCACAAUGCACAUGAGGAUCACCCAUGUCAUCCUCGCGCUUGAGAUAGAAGGGUGAAACC [Eternabot (L1) Solution 65] (Eterna round: R97, puzzle: Exclusion 5)”, the “apparent KD of MS2 coat protein” value (input ligand: FMN 200 uM) worked out at 21.1 nM and the “apparent KD of MS2 coat protein” value (input ligand: none) stood at 23.7 nM.
For “CAGUACGGAGGAUAUACAUGAGGAUCACCCAUGUACGCGGGUGUCACUGGGAGAACUUGUAGAAGGCCGAGUCC [Eternabot (L1) Solution 8] (Eterna round: R97, puzzle: Exclusion 3)”, the “apparent KD of MS2 coat protein” value runs as follows: (input ligand: FMN 200 uM) 196 nM; (input ligand: none) 107 nM.
For “CAGUACUGAGGAUAUACAUGAGGAUCACCCAUGUGAGAGAUACUAAUGAGGUCGAUUAGUAGAAGGCAGUACUG [Mat X3R4 m4] (Eterna round: R97, puzzle: Exclusion 3)”, the “apparent KD of MS2 coat protein” value by setting is: (input ligand: FMN 200 uM) 240 nM; (input ligand: none) 17.5 nM.
The like results for “CAGUACUGAGGAUAUACAUGAGGAUCACCCAUGUGAUUUAGUGCACGCGUACGUGUACGUAGAAGGCAGUACUG [JL 3.27 m1] (Eterna round: R97, puzzle: Exclusion 3)” were, in that order, 182 nM and 20.8 nM.
